We go through 4 molecules from PMC9883506, “Self-recycling and partially conservative replication of mycobacterial methylmannose polysaccharides” (Communications Biology, 2023).

Changes are numbered by the printed parent chain. In names and notes the source's numbering stands.

Data set [1] deals with T1, MeT1 (Mycolicibacterium hassiacum, UniProt K5B7F3).
T1 construct: full length, C-terminal His6 tag (pET30a), synthetic gene, E. coli BL21(DE3)
Briefly: SahH-coupled DTNB assay of SAH release. To be noted: 100 μM MnCl2, BTP pH 7.5. The format is biochemical.

Substrate in data set [2]: CCCO[C@H]1O[C@H](CO)[C@@H](O[C@H]2O[C@H](CO)[C@@H](O[C@H]3O[C@H](CO)[C@@H](O[C@H]4O[C@H](CO)[C@@H](O)[C@H](OC)[C@@H]4O)[C@H](OC)[C@@H]3O)[C@H](OC)[C@@H]2O)[C@H](OC)[C@@H]1O
As to the kind of experiment: coupled PK/LDH NADH assay of GDP release. The format is biochemical, Mycolicibacterium hassiacum. Particulars: 2.5 mM GDP-Man, 7.5 mM MgCl2, 5 mM NaCl, 0.1% Triton X-100, 50 mM BTP pH 8.5, 37 °C, acceptor. From the text: (§1) coupled PK/LDH NADH assay of GDP release on ManT

Substrate in data set [3]: Nc1nc2c(ncn2[C@@H]2O[C@H](COP(=O)(O)OP(=O)(O)O[C@H]3O[C@H](CO)[C@@H](O)[C@H](O)[C@@H]3O)[C@@H](O)[C@H]2O)c(=O)[nH]1
Briefly: coupled PK/LDH NADH assay of GDP release. The format is biochemical, Mycolicibacterium hassiacum. Particulars: 0.1% Triton X-100, 50 mM BTP pH 8.5, 37 °C, donor.
From the text: as §1

Substrate in data set [4]: CCCO[C@H]1O[C@H](CO)[C@@H](O[C@H]2O[C@H](CO)[C@@H](O[C@H]3O[C@H](CO)[C@@H](O[C@H]4O[C@H](CO)[C@@H](O)[C@H](O)[C@@H]4O)[C@H](O)[C@@H]3O)[C@H](O)[C@@H]2O)[C@H](O)[C@@H]1O
Briefly: coupled PK/LDH NADH assay of GDP release. The format is biochemical, Mycolicibacterium hassiacum. Particulars: 5 mM GDP-Man, 7.5 mM MgCl2, 5 mM NaCl, 0.1% Triton X-100, 50 mM BTP pH 8.5, 37 °C, acceptor.
From the text: as §1

The mark [5] stands for this setting: 3.5 mM sMetMan4, 7.5 mM MgCl2, 5 mM NaCl.
The mark [6] stands for this setting: 1.5 mM sMetMan4, 7.5 mM MgCl2, 5 mM NaCl.

T1 sequence (K5B7F3 whole entry): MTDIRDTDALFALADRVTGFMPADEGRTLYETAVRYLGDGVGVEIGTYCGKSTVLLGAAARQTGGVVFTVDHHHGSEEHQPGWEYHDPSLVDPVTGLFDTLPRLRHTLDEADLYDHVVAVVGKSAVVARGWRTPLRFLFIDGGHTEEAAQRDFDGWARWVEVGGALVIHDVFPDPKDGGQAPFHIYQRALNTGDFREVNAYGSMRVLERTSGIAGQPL

`CO[C@@H]1[C@H](O)[C@@H](O[C@H]2[C@H](OC)[C@H](O)C(O)O[C@@H]2CO)O[C@H](CO)[C@H]1O` (stereo partly drawn) [sMetMan2]: in data set [1] (1 mM SAM, 1.5 mM acceptor), the “SahH-coupled DTNB assay of SAH release” value is “The activity of MeT1 toward the synthetic substrate sMetMan2 and the two natural substrates”.

With `C[S+](CC[C@H](N)C(=O)O)C[C@H]1O[C@@H](n2cnc3c(N)ncnc32)[C@H](O)[C@@H]1O` (stereo partly drawn) [SAM, S-adenosyl-methionine], in data set [1] (1.5 mM oligomannoside acceptor, methyl donor), the “SahH-coupled DTNB assay of SAH release” value is listed as “quantified from the S-adenosyl-homocysteine (SAH) released from SAM through a continuous”.

B1: ManT (Mycolicibacterium hassiacum DSM 44199; E313A) (protein)
chain: MRIALLSYRSKTHCGGQGVYVRHLSRELAELGHDVEVFSGQPYPEGLDPRVRLTKVPSLDLYREPDPFRIPRPSEIKTSIDLEELLTTWTAGFPEPKTFSLRAARVLAGRRGDFDVVHDNQCLGTGLLQIAKMGFPLVATVHHPITRDREVEVAAARWWRKPLVRRWYGFVEMQKRVARQIPELLTVSSASASDILTDFAVSPEQLHVVPLGVDTKLFQPREGRVRNRIIAIASADVPLKGVSHLLHAVARLRVERDVELQLVTKLEPNGPTEKLIAELGISDIVHTSSGLSDEELAALLASAEVACIPSLYAGFSLPAVEAMASGTPIVASRAGALPEVVGPDGECARLVTPADVDELTAVLGRLLDSPRELRRLGDNGRRRAVEVFSWQSVAAQTVAVYEKAIARVAAC
notes: full length, N-terminal His6 tag (pETM11, tag not removed), synthetic gene, E. coli BL21(DE3); purified with Triton X-100
B1: in data set [2], the Km (in general, the substrate concentration at which the rate is half of its maximum) came out at 1180 ± 300 µM and the catalytic efficiency (kcat/Km) (commonly the second-order rate constant that governs catalysis at low substrate concentration) came to 5 ± 1 M⁻¹ s⁻¹. In data set [3] (setting [5]), the Michaelis constant (Km) stood at 1230 ± 300 µM and the kcat/Km worked out at 7 ± 2 M⁻¹ s⁻¹.

B2: ManT (Mycolicibacterium hassiacum DSM 44199) (protein)
chain: B1 chain with A313E
notes: as for B1
On to B2, for which the Michaelis-Menten constant (Km) amounted to 130 ± 30 µM in data set [2], 280 ± 50 µM in data set [3] (setting [6]) and 2780 ± 450 µM in data set [4]. Besides, the kcat/Km in data set [2] turned out to be 362 ± 68 M⁻¹ s⁻¹; in data set [3] (setting [6]), 171 ± 33 M⁻¹ s⁻¹; in data set [4], 9 ± 2 M⁻¹ s⁻¹.
